Values joined by “and” are separate entries in the source; they are usually repeats but may differ in a detail not shown here. Equal entries are not always repeated.
Legend:
Assay in all cases: cryo-EM structure
[1] = molecular target: CUS-3 tailspike protein (gp9 by the name of the P22 homologue) (bacteriophage CUS-3)
[2] = molecular target: CUS-3 tail needle protein (gp26 by the name of the P22 homologue) (bacteriophage CUS-3)
[3] = molecular target: CUS-3 portal protein (gp1 by the name of the P22 homologue) (bacteriophage CUS-3)
[4] = molecular target: CUS-3 coat protein (CP, major capsid protein; gp5 by the name of the P22 homologue) (bacteriophage CUS-3)

Substance: CUS-3 tailspike protein (gp9 by the name of the P22 homologue) (natural protein)
- stoichiometry N [1]: 3

Substance: CUS-3 tail needle protein (gp26 by the name of the P22 homologue) (natural protein)
- stoichiometry N [2]: 3

Substance: CUS-3 portal protein (gp1 by the name of the P22 homologue) (natural protein)
- stoichiometry N [3]: 12

Substance: CUS-3 coat protein (CP, major capsid protein; gp5 by the name of the P22 homologue) (natural protein)
- stoichiometry N [4]: 5 and 6

— paper PMC4157081
